In PMC8053128, “Structures of Neisseria gonorrhoeae MtrR-operator complexes reveal molecular mechanisms of DNA recognition and antibiotic resistance-conferring clinical mutations”:

Columns and labels:
MtrR T11A = MtrR T11A (Neisseria gonorrhoeae, UniProt P39897 1-210, T11A); test: fluorescence polarization; FP: 20 mM Tris-HCl pH 7.5, 100 mM NaCl, 2.5% glycerol, 1 mM TCEP, 1 ug BSA, 1 ug poly(dI-dC), 1 nM 5'-fluorescein DNA; temperature not stated; MtrR concentration as dimer; details: protein: recombinant; tags: N-terminal His6 removed by TEV (pMCSG7); chain copies: 2; label: 5'-fluorescein
MtrR H50A = MtrR H50A (Neisseria gonorrhoeae, UniProt P39897 1-210, H50A); test: as above; details: protein: recombinant; tags: N-terminal His6 removed by TEV (pMCSG7); chain copies: 2; label: 5'-fluorescein
MtrR T43S = MtrR T43S (Neisseria gonorrhoeae, UniProt P39897 1-210, T43S); test: as above; details: protein: recombinant; tags: N-terminal His6 removed by TEV (pMCSG7); chain copies: 2; label: 5'-fluorescein
MtrR G45D = MtrR G45D (Neisseria gonorrhoeae, UniProt P39897 1-210, G45D); test: as above; details: protein: recombinant; tags: N-terminal His6 removed by TEV (pMCSG7); chain copies: 2; label: 5'-fluorescein
MtrR W49F = MtrR W49F (Neisseria gonorrhoeae, UniProt P39897 1-210, W49F); test: as above; details: protein: recombinant; tags: N-terminal His6 removed by TEV (pMCSG7); chain copies: 2; label: 5'-fluorescein
MtrR T43A = MtrR T43A (Neisseria gonorrhoeae, UniProt P39897 1-210, T43A); test: as above; details: protein: recombinant; tags: N-terminal His6 removed by TEV (pMCSG7); chain copies: 2; label: 5'-fluorescein
MtrR R44A = MtrR R44A (Neisseria gonorrhoeae, UniProt P39897 1-210, R44A); test: as above; details: protein: recombinant; tags: N-terminal His6 removed by TEV (pMCSG7); chain copies: 2; label: 5'-fluorescein
MtrR H105Y = MtrR H105Y (Neisseria gonorrhoeae, UniProt P39897 1-210, H105Y); test: as above; details: protein: recombinant; tags: N-terminal His6 removed by TEV (pMCSG7); chain copies: 2; label: 5'-fluorescein
MtrR A39T = MtrR A39T (Neisseria gonorrhoeae, UniProt P39897 1-210, A39T); test: as above; details: protein: recombinant; tags: N-terminal His6 removed by TEV (pMCSG7); chain copies: 2; label: 5'-fluorescein
MtrR WT [1] = molecular target: T1, MtrR WT (Neisseria gonorrhoeae, UniProt P39897 1-210); test: as above; details: protein: recombinant; tags: N-terminal His6 removed by TEV (pMCSG7); chain copies: 2; label: 5'-fluorescein
MtrR D79N = MtrR D79N (Neisseria gonorrhoeae, UniProt P39897 1-210, D79N); test: as above; details: protein: recombinant; tags: N-terminal His6 removed by TEV (pMCSG7); chain copies: 2; label: 5'-fluorescein
MtrR G45A = MtrR G45A (Neisseria gonorrhoeae, UniProt P39897 1-210, G45A); test: as above; details: protein: recombinant; tags: N-terminal His6 removed by TEV (pMCSG7); chain copies: 2; label: 5'-fluorescein
MtrR WT [2] = molecular target: T1, MtrR WT; test: fluorescence polarization; nonspecific binding only; FP: 20 mM Tris-HCl pH 7.5, 100 mM NaCl, 2.5% glycerol, 1 mM TCEP, 1 ug BSA, 1 ug poly(dI-dC), 1 nM 5'-fluorescein DNA; temperature not stated; MtrR concentration as dimer; details: protein: recombinant; tags: N-terminal His6 removed by TEV (pMCSG7); chain copies: 2; label: 5'-fluorescein
Semet-MtrR WT = Semet-MtrR WT (Neisseria gonorrhoeae, UniProt P39897 1-210); test: X-ray crystallography; 2.6 A; 200 mM calcium acetate; FP: 20 mM Tris-HCl pH 7.5, 100 mM NaCl, 2.5% glycerol, 1 mM TCEP, 1 ug BSA, 1 ug poly(dI-dC), 1 nM 5'-fluorescein DNA; temperature not stated; MtrR concentration as dimer; details: protein: recombinant; tags: N-terminal His6 removed by TEV (pMCSG7); chain copies: 2

B1: rpoH 27mer (dsDNA)
DNA 1: TACATACGTGGTTGTATGTAAACGGCC
DNA 2: GGCCGTTTACATACAACCACGTATGTA
- Kd (MtrR T11A): 441 ± 37 nM
- Kd (MtrR H50A): 376 ± 35 nM
- Kd (MtrR T43S): 860 ± 180 nM
- binding result (MtrR G45D): no binding
- Kd (MtrR W49F): 53 ± 3 nM
- binding result (MtrR T43A): no binding
- binding result (MtrR R44A): no binding
- Kd (MtrR H105Y): 340 ± 57 nM
- Kd (MtrR A39T): 31 ± 3 nM
- Kd (MtrR WT [1]): 8 ± 1 nM

B2: mtrCDE 21mer (dsDNA)
DNA 1: TATCCGTGCAATCGTGTATGT
DNA 2: ACATACACGATTGCACGGATA
- binding result (MtrR D79N): no binding
- Kd (MtrR T11A): 1080 ± 93 nM
- Kd (MtrR H50A): 990 ± 100 nM
- binding result (MtrR G45D): no binding
- Kd (MtrR W49F): 380 ± 44 nM
- binding result (MtrR T43A): no binding
- binding result (MtrR R44A): no binding
- Kd (MtrR H105Y): 640 ± 130 nM
- Kd (MtrR A39T): 170 ± 11 nM
- Kd (MtrR WT [1]): 50 ± 4 nM

B3: GpY 27mer (dsDNA)
DNA 1: TACATAGCTGGTGTTATGTAAACGGCC
DNA 2: GGCCGTTTACATAACACCAGCTATGTA
- binding result (MtrR G45D): no binding
- binding result (MtrR G45A): no binding
- binding result (MtrR T43A): no binding
- binding result (MtrR R44A): no binding
- Kd (MtrR H105Y): 860 ± 80 nM
- binding result (MtrR A39T): no binding
- binding result (MtrR WT [2]): no binding

B4: mtrCDE 27mer (dsDNA)
DNA 1: TTTTTATCCGTGCAATCGTGTATGTAT
DNA 2: ATACATACACGATTGCACGGATAAAAA
- Kd (MtrR WT [1]): 43 ± 4 nM

B5: ApY 27mer (dsDNA)
DNA 1: TACAATCGTGGTTGATTGTAAACGGCC
DNA 2: GGCCGTTTACAATCAACCACGATTGTA
- Kd (MtrR WT [1]): 293 ± 24 nM

B6: emrAB 22mer (dsDNA)
DNA 1: AGTCGGCTATATCATTGCTGTC
DNA 2: GACAGCAATGATATAGCCGACT
- binding result (MtrR G45D): no binding
- binding result (MtrR G45A): no binding
- binding result (MtrR T43A): no binding
- binding result (MtrR R44A): no binding
- binding result (MtrR A39T): no binding
- binding result (MtrR WT [2]): no binding

B7: rpoH 21mer (crystal) (dsDNA)
DNA 1: TACATACGTGGTTGTATGTAA
DNA 2: TTACATACAACCACGTATGTA
- binding result (Semet-MtrR WT): binds
